In patent EP1724589A2 one finds OD (maximal signal), Kd and average OD405 data, which are given here for 1 substance.

For test [1], the target named is S-100b. As to the kind of experiment: ELISA: S-100b coated at 500 ng/well, sRAGE at 1.0 x 10^-4 mg/ml, detected with anti-sRAGE antibody complex.
Test [2] concerns the target S-100b. Put plainly: ELISA saturation curve with Scatchard analysis (Figure 8): S-100b coated at 50 ng/well, sRAGE about 0.3 to 10 nM, high affinity component. (In general: An ELISA detects its analyte on a solid surface through an enzyme-linked reagent.)
The target of test [3] is S-100b. Put plainly: ELISA saturation curve with Scatchard analysis (Figure 9): S-100b coated at 100 ng/well, sRAGE about 0.3 to 10 nM, high affinity component.
Test [4] has as its target S-100b. As to the kind of experiment: ELISA: 88 wells coated with S-100b at 500 ng/well, sRAGE at 2.2 x 10^-4 mg/ml, polyclonal anti-sRAGE detection (Figure 7).
In test [5] the target is S-100b. As to the kind of experiment: ELISA saturation curves with Scatchard analysis (Figures 10 and 11): S-100b coated at 500 and 100 ng/well, sRAGE about 23 to 470 nM or 5 to 76 nM, low affinity site.

Substance “soluble RAGE (sRAGE), the soluble, extracellular portion of human Receptor for Advanced Glycated Endproducts (from UniProt Q15109 23-339)” gave an OD (maximal signal) in test [1] of 1.06 OD. In addition, the Kd (in general, the free concentration of one partner at which half of the binding sites on the other are occupied at equilibrium, for simple one-to-one binding) in test [2] was determined as 6 nM; in test [3], 2 nM; in test [5], 60 nM. This substance also had an average OD405 in test [4] of 0.705 OD405.
